{"source": "paper PMC9482650", "about": "“Quantitative fragmentomics allow affinity mapping of interactomes” (Nature Communications, 2022)", "binders": {"B1": {"name": "SSTR5, P35346 (peptide)", "chain": "ANGLMQTSKL"}, "B2": {"name": "EFNB3, Q15768 (peptide)", "chain": "QSPPNIYYKV"}}}
{"target": "T1, DLG3_1, Q92796", "T1 sequence (Q92796 125-227, limits assumed, looked up)": "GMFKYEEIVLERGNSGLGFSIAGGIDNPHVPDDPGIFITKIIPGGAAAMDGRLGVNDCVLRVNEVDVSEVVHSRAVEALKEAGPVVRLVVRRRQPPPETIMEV", "assay": "holdup assay", "parameters": "key: below the threshold = too weak to quantify, mostly under pKd 3.1 to 4", "conditions": "plain residues with an end cap or a label only (N-terminal biotin on a linker: ado-ado)"}
{"binder": "B1", "pKd": "below the threshold"}
{"binder": "B2", "pKd": "below the threshold"}
{"target": "DLG4_2, P78352", "sequence (P78352 155-259)": "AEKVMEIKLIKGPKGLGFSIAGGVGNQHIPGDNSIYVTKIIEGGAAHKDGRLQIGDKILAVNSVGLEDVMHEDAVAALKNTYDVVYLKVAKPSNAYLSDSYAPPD", "assay": "holdup assay", "parameters": "key: below the threshold = too weak to quantify, mostly under pKd 3.1 to 4", "conditions": "plain residues with an end cap or a label only (N-terminal biotin on a linker: ado-ado)"}
{"binder": "B1", "pKd": "below the threshold"}
{"binder": "B2", "pKd": 3.54}
{"target": "DLG4_3, P78352", "sequence (P78352 306-403)": "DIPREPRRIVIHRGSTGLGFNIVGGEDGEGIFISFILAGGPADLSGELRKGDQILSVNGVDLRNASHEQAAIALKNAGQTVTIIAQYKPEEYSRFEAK", "assay": "holdup assay", "parameters": "key: below the threshold = too weak to quantify, mostly under pKd 3.1 to 4", "conditions": "plain residues with an end cap or a label only (N-terminal biotin on a linker: ado-ado)"}
{"binder": "B1", "pKd": "below the threshold"}
{"binder": "B2", "pKd": "below the threshold"}
{"target": "T2, FRMPD1, Q5SYB0", "T2 sequence (Q5SYB0 52-145, limits assumed, looked up)": "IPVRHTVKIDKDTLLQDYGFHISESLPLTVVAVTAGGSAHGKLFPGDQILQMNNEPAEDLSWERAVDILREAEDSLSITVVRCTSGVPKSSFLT", "assay": "holdup assay", "parameters": "key: below the threshold = too weak to quantify, mostly under pKd 3.1 to 4", "conditions": "plain residues with an end cap or a label only (N-terminal biotin on a linker: ado-ado)"}
{"binder": "B1", "pKd": "below the threshold"}
{"binder": "B2", "pKd": "below the threshold"}
{"target": "FRMPD2_1, Q68DX3", "sequence (Q68DX3 770-861)": "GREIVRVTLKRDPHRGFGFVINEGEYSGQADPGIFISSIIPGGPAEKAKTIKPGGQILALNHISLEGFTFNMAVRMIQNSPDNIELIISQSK", "assay": "holdup assay", "parameters": "key: below the threshold = too weak to quantify, mostly under pKd 3.1 to 4", "conditions": "plain residues with an end cap or a label only (N-terminal biotin on a linker: ado-ado)"}
{"binder": "B1", "pKd": "below the threshold"}
{"binder": "B2", "pKd": 3.79}
{"target": "GRIP2_3, Q9C0E4", "sequence (Q9C0E4 238-339)": "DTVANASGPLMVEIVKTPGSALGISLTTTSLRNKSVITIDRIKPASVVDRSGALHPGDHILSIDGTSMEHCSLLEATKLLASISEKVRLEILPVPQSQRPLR", "assay": "holdup assay", "parameters": "key: below the threshold = too weak to quantify, mostly under pKd 3.1 to 4", "conditions": "plain residues with an end cap or a label only (N-terminal biotin on a linker: ado-ado)"}
{"binder": "B1", "pKd": "below the threshold"}
{"binder": "B2", "pKd": "below the threshold"}
{"target": "HTRA1, Q92743", "sequence (Q92743 360-477)": "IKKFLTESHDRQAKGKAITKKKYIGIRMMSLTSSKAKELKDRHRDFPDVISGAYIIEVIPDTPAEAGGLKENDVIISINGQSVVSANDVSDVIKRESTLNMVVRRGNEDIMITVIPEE", "assay": "holdup assay", "parameters": "key: below the threshold = too weak to quantify, mostly under pKd 3.1 to 4", "conditions": "plain residues with an end cap or a label only (N-terminal biotin on a linker: ado-ado)"}
{"binder": "B1", "pKd": "below the threshold"}
{"binder": "B2", "pKd": 4.49}
{"target": "HTRA2, O43464", "sequence (O43464 355-458)": "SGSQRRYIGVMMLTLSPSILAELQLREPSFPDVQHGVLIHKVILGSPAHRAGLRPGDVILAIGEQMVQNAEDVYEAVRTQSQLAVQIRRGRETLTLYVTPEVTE", "assay": "holdup assay", "parameters": "key: below the threshold = too weak to quantify, mostly under pKd 3.1 to 4", "conditions": "plain residues with an end cap or a label only (N-terminal biotin on a linker: ado-ado)"}
{"binder": "B1", "pKd": "below the threshold"}
{"binder": "B2", "pKd": 4.3}
{"target": "IL16_1, Q14005", "sequence (Q14005 210-306)": "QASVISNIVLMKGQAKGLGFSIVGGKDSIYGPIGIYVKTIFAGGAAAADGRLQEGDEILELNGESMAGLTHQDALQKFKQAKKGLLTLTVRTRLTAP", "assay": "holdup assay", "parameters": "key: below the threshold = too weak to quantify, mostly under pKd 3.1 to 4", "conditions": "plain residues with an end cap or a label only (N-terminal biotin on a linker: ado-ado)"}
{"binder": "B1", "pKd": "below the threshold"}
{"binder": "B2", "pKd": "below the threshold"}
{"target": "IL16_3, Q14005", "sequence (Q14005 1107-1207)": "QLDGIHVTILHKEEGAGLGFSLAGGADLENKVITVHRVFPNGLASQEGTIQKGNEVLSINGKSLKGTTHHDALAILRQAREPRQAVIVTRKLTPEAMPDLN", "assay": "holdup assay", "parameters": "key: below the threshold = too weak to quantify, mostly under pKd 3.1 to 4", "conditions": "plain residues with an end cap or a label only (N-terminal biotin on a linker: ado-ado)"}
{"binder": "B1", "pKd": "below the threshold"}
{"binder": "B2", "pKd": "below the threshold"}
{"target": "IL16_4, Q14005", "sequence (Q14005 1229-1329)": "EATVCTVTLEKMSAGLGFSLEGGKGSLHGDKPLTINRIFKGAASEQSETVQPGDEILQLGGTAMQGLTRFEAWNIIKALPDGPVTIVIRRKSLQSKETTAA", "assay": "holdup assay", "parameters": "key: below the threshold = too weak to quantify, mostly under pKd 3.1 to 4", "conditions": "plain residues with an end cap or a label only (N-terminal biotin on a linker: ado-ado)"}
{"binder": "B1", "pKd": 3.84}
{"binder": "B2", "pKd": 3.76}
{"target": "Inadl_4, Q8NI35", "sequence (Q8NI35 547-651)": "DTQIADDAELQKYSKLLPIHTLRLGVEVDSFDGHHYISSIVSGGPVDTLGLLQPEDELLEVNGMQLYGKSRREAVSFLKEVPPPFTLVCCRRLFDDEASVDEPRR", "assay": "holdup assay", "parameters": "key: below the threshold = too weak to quantify, mostly under pKd 3.1 to 4", "conditions": "plain residues with an end cap or a label only (N-terminal biotin on a linker: ado-ado)"}
{"binder": "B1", "pKd": "below the threshold"}
{"binder": "B2", "pKd": 3.51}
{"target": "Inadl_8, Q8NI35", "sequence (Q8NI35 1425-1530)": "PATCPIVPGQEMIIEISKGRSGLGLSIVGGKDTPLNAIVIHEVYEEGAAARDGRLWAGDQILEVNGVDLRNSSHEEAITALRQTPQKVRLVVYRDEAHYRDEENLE", "assay": "holdup assay", "parameters": "key: below the threshold = too weak to quantify, mostly under pKd 3.1 to 4", "conditions": "plain residues with an end cap or a label only (N-terminal biotin on a linker: ado-ado)"}
{"binder": "B1", "pKd": "below the threshold"}
{"binder": "B2", "pKd": "below the threshold"}
{"target": "LIMK2, P53671", "sequence (P53671 143-248)": "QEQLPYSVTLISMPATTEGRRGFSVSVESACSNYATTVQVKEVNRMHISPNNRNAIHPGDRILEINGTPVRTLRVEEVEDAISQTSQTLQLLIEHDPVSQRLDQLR", "assay": "holdup assay", "parameters": "key: below the threshold = too weak to quantify, mostly under pKd 3.1 to 4", "conditions": "plain residues with an end cap or a label only (N-terminal biotin on a linker: ado-ado)"}
{"binder": "B1", "pKd": "below the threshold"}
{"binder": "B2", "pKd": "below the threshold"}
{"target": "T3, LIN7B, Q9HAP6", "T3 sequence (Q9HAP6 88-185, limits assumed, looked up)": "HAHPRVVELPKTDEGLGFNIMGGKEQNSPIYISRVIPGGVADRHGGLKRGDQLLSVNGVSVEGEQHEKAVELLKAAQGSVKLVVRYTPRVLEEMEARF", "assay": "holdup assay", "parameters": "key: below the threshold = too weak to quantify, mostly under pKd 3.1 to 4", "conditions": "plain residues with an end cap or a label only (N-terminal biotin on a linker: ado-ado)"}
{"binder": "B1", "pKd": 3.47}
{"binder": "B2", "pKd": "below the threshold"}
{"target": "T4, LNX2_2, Q8N448", "T4 sequence (Q8N448 334-432, limits assumed, looked up)": "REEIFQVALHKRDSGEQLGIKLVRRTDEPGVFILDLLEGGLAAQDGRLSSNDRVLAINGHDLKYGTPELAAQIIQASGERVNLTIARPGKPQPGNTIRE", "assay": "holdup assay", "parameters": "key: below the threshold = too weak to quantify, mostly under pKd 3.1 to 4", "conditions": "plain residues with an end cap or a label only (N-terminal biotin on a linker: ado-ado)"}
{"binder": "B1", "pKd": "below the threshold"}
{"binder": "B2", "pKd": 4.27}
{"target": "T5, MPP2, Q14168", "T5 sequence (Q14168 180-250, limits assumed, looked up)": "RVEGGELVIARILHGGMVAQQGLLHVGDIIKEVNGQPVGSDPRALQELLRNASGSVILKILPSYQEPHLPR", "assay": "holdup assay", "parameters": "key: below the threshold = too weak to quantify, mostly under pKd 3.1 to 4", "conditions": "plain residues with an end cap or a label only (N-terminal biotin on a linker: ado-ado)"}
{"binder": "B1", "pKd": "below the threshold"}
{"binder": "B2", "pKd": "below the threshold"}
{"target": "NHERF4_1, Q86UT5-2", "sequence (Q86UT5 other isoform, or with tags, fused parts or gaps)": "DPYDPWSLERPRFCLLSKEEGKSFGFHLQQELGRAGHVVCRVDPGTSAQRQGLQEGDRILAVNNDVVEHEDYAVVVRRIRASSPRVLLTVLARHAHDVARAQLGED", "assay": "holdup assay", "parameters": "key: below the threshold = too weak to quantify, mostly under pKd 3.1 to 4", "conditions": "plain residues with an end cap or a label only (N-terminal biotin on a linker: ado-ado)"}
{"binder": "B1", "pKd": 4.3}
{"binder": "B2", "pKd": "below the threshold"}
{"target": "PARD3_3, Q8TEW0", "sequence (Q8TEW0 582-685)": "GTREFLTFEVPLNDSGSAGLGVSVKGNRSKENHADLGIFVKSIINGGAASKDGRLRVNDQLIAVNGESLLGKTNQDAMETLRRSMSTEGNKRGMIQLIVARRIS", "assay": "holdup assay", "parameters": "key: below the threshold = too weak to quantify, mostly under pKd 3.1 to 4", "conditions": "plain residues with an end cap or a label only (N-terminal biotin on a linker: ado-ado)"}
{"binder": "B1", "pKd": "below the threshold"}
{"binder": "B2", "pKd": "below the threshold"}
{"target": "T6, PCLO, Q9Y6V0", "T6 sequence (Q9Y6V0 4491-4600, limits assumed, looked up)": "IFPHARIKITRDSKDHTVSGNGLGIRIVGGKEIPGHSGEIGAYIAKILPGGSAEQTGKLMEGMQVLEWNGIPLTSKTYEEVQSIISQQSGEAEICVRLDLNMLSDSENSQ", "assay": "holdup assay", "parameters": "key: below the threshold = too weak to quantify, mostly under pKd 3.1 to 4", "conditions": "plain residues with an end cap or a label only (N-terminal biotin on a linker: ado-ado)"}
{"binder": "B1", "pKd": "below the threshold"}
{"binder": "B2", "pKd": "below the threshold"}
{"target": "PDLIM1, O00151", "sequence (O00151 1-87)": "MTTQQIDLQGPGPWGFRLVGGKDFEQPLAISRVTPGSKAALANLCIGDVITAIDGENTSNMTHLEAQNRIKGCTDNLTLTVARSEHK", "assay": "holdup assay", "parameters": "key: below the threshold = too weak to quantify, mostly under pKd 3.1 to 4", "conditions": "plain residues with an end cap or a label only (N-terminal biotin on a linker: ado-ado)"}
{"binder": "B1", "pKd": "below the threshold"}
{"binder": "B2", "pKd": "below the threshold"}
{"target": "T7, PDZRN3_1, Q9UPQ7", "T7 sequence (Q9UPQ7 244-349, limits assumed, looked up)": "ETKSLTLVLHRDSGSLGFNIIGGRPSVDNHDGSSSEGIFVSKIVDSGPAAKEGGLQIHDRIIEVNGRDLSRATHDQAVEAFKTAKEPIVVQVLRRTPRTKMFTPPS", "assay": "holdup assay", "parameters": "key: below the threshold = too weak to quantify, mostly under pKd 3.1 to 4", "conditions": "plain residues with an end cap or a label only (N-terminal biotin on a linker: ado-ado)"}
{"binder": "B1", "pKd": "below the threshold"}
{"binder": "B2", "pKd": "below the threshold"}
{"target": "T8, RHPN1, Q8TCX5", "T8 sequence (Q8TCX5 508-602, limits assumed, looked up)": "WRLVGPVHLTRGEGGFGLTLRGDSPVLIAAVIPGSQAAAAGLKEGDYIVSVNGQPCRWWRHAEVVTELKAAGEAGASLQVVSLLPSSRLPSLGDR", "assay": "holdup assay", "parameters": "key: below the threshold = too weak to quantify, mostly under pKd 3.1 to 4", "conditions": "plain residues with an end cap or a label only (N-terminal biotin on a linker: ado-ado)"}
{"binder": "B1", "pKd": 4.36}
{"binder": "B2", "pKd": "below the threshold"}
{"target": "T9, SNTA1, Q13424", "T9 sequence (Q13424 82-180, limits assumed, looked up)": "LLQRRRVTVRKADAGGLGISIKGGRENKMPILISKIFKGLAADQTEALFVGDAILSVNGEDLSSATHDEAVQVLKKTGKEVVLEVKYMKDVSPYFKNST", "assay": "holdup assay", "parameters": "key: below the threshold = too weak to quantify, mostly under pKd 3.1 to 4", "conditions": "plain residues with an end cap or a label only (N-terminal biotin on a linker: ado-ado)"}
{"binder": "B1", "pKd": "below the threshold"}
{"binder": "B2", "pKd": "below the threshold"}
{"target": "T10, SNTG2, Q9NY99", "T10 sequence (Q9NY99 68-166, limits assumed, looked up)": "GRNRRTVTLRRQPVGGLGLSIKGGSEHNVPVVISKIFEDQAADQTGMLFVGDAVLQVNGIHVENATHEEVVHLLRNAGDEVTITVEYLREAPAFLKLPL", "assay": "holdup assay", "parameters": "key: below the threshold = too weak to quantify, mostly under pKd 3.1 to 4", "conditions": "plain residues with an end cap or a label only (N-terminal biotin on a linker: ado-ado)"}
{"binder": "B1", "pKd": 3.62}
{"binder": "B2", "pKd": 3.7}
{"target": "SNX27, Q96L92", "assay": "holdup assay", "parameters": "key: below the threshold = too weak to quantify, mostly under pKd 3.1 to 4", "conditions": "plain residues with an end cap or a label only (N-terminal biotin on a linker: ado-ado)"}
{"binder": "B1", "pKd": 5.52}
{"binder": "B2", "pKd": 3.89}
{"target": "T11, TX1BP3, O14907", "T11 sequence (O14907 10-122, limits assumed, looked up)": "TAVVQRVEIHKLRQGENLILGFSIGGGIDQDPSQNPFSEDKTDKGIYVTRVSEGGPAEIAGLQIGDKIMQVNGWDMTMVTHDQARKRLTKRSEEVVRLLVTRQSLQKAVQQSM", "assay": "holdup assay", "parameters": "key: below the threshold = too weak to quantify, mostly under pKd 3.1 to 4", "conditions": "plain residues with an end cap or a label only (N-terminal biotin on a linker: ado-ado)"}
{"binder": "B1", "pKd": 4.11}
{"binder": "B2", "pKd": "below the threshold"}
